Measurements from US20260076602A1, “SYSTEM AND METHOD FOR RAPID ASSESSMENT OF RENAL FUNCTION” (Mayo Foundation for Medical Education and Research, priority 2018, published 2026).

Test: Normalized fluorescence from retinal vasculature following IV injection of fluorescent tracer agents (renal clearance)
Details: period of 15 min after IV injection, FIG. 12A
Method: Normalized fluorescence from retinal vasculature following sequential IV FITC-inulin (green) and Rhod-Dex (500 kD, red) using Phoenix Research Systems Micron imaging may be obtained. Traces synchronized to tail-vein injection (T=0 min). […] Inulin clearance based on traces of normalized fluorescence and previous calibration of Inulin/Rhod-Dex ratio in WT mouse whole blood (insert). Dashed black lines=exponential and linear (insert) curve fits to inulin concentration.
As an example, AK-Fluor®, a fluorescein-based substance, may be used as a first tracer agent that is substantially cleared by healthy renal function and emits a first fluorescent light when excited by a first excitation light. […] In some examples, a AK-Fluor® of 10^−7 g/ml is injected into the patient during an iGFR procedure. […] As shown, in addition to recording the fluorescence signals representing the fluorescent intensities of a first tracer agent and a second tracer agent, a decay rate of the first tracer agent may also be fitted to a first exponential order. […] As another example, FITC-inulin may also be used as a first tracer agent that is substantially cleared by healthy renal function and emits a first fluorescent light when excited by a first excitation light.

FITC-inulin
fluorescence of tracer agent after injection (clearance by healthy renal function): decrease over a period of 15 min after injection
